{"source": "the Human Domainome abundance scans (Beltran et al. 2025)", "parents": {"B1": {"name": "Zinc finger homeobox protein 3, residues 2244 to 2299; numbered along this chain, Q15911 (parent)", "chain": "SSRTRFTDYQLRVLQDFFDANAYPKDDEFEQLSNLLNLPTRVIVVWFQNARQKARK"}}, "note": "± gives the uncertainty stated by the source."}
{"variants_of": "B1", "assay": "abundance fitness (aPCA) (normalised: wild type 0, dead -1); higher = more abundant; growth selection in yeast, the domain comes from the species named", "conditions": "Homo sapiens"}
{"variant": "SSRTRFTDYQLSVLQDFFDANAYPKDDEFEQLSNLLNLPTRVIVVWFQNARQKARK", "note": "[R12S]", "abundance fitness": "-0.149 ± 0.069"}
{"variant": "SSRTRFTDYQLRVLQDFFDANAYPKDDEFEQLSNLLNLPTRVKVVWFQNARQKARK", "note": "[I43K]", "abundance fitness": "-0.744 ± 0.26"}
{"variant": "SSRTRFTDYQLRVLQDFFDANAYPKDDEFEQLSNLANLPTRVIVVWFQNARQKARK", "note": "[L36A]", "abundance fitness": "-0.238 ± 0.13"}
{"variant": "SSRTRFTDYQLRVLQDFFDANAYPKDYEFEQLSNLLNLPTRVIVVWFQNARQKARK", "note": "[D27Y]", "abundance fitness": "-0.16 ± 0.13"}
{"variant": "SSRTRFTDYQLHVLQDFFDANAYPKDDEFEQLSNLLNLPTRVIVVWFQNARQKARK", "note": "[R12H]", "abundance fitness": "0.051 ± 0.066"}
{"variant": "SSRTRFTDYQLRHLQDFFDANAYPKDDEFEQLSNLLNLPTRVIVVWFQNARQKARK", "note": "[V13H]", "abundance fitness": "-0.178 ± 0.17"}
{"variant": "SSRTRFTDYQLRVLQDFFDANAYPKDDEFEQLSNLLNLPTRVIWVWFQNARQKARK", "note": "[V44W]", "abundance fitness": "-0.084 ± 0.12"}
{"variant": "SSRTRFTDYQLRVLQDFFDANWYPKDDEFEQLSNLLNLPTRVIVVWFQNARQKARK", "note": "[A22W]", "abundance fitness": "-0.054 ± 0.12"}
{"variant": "SSRTRFTDYQLRVLQDFFDANAYPKDDEFEQLSNLLNLPTRGIVVWFQNARQKARK", "note": "[V42G]", "abundance fitness": "-0.056 ± 0.087"}
{"variant": "SSRTRFTDYQLRVLQDFFDANAYPKDDEFEQLSNLLNLPTRVIVVVFQNARQKARK", "note": "[W46V]", "abundance fitness": "-0.88 ± 0.11"}
{"variant": "SSRTRFRDYQLRVLQDFFDANAYPKDDEFEQLSNLLNLPTRVIVVWFQNARQKARK", "note": "[T7R]", "abundance fitness": "-0.556 ± 0.086"}
{"variant": "SSRTRFTDYQERVLQDFFDANAYPKDDEFEQLSNLLNLPTRVIVVWFQNARQKARK", "note": "[L11E]", "abundance fitness": "0.038 ± 0.12"}
{"variant": "SSRTRFTDYQLRVLQDFFDANAYPKDDEFEQLSNLLNLPTRVIVVWKQNARQKARK", "note": "[F47K]", "abundance fitness": "-0.983 ± 0.2"}
{"variant": "SSRTRFTDYQLRVLQDFFDANAYPKDDEFEQLSNLLNLPTRVIVVWFQNARQNARK", "note": "[K53N]", "abundance fitness": "0.138 ± 0.09"}
{"variant": "SSRFRFTDYQLRVLQDFFDANAYPKDDEFEQLSNLLNLPTRVIVVWFQNARQKARK", "note": "[T4F]", "abundance fitness": "0.03 ± 0.17"}
{"variant": "SSRTRFTDYQLRVLQDFFDANAYPKDDEFEQLSNLLNLTTRVIVVWFQNARQKARK", "note": "[P39T]", "abundance fitness": "-0.209 ± 0.087"}
{"variant": "SSRTRFTDYQLRVKQDFFDANAYPKDDEFEQLSNLLNLPTRVIVVWFQNARQKARK", "note": "[L14K]", "abundance fitness": "-0.948 ± 0.17"}
{"variant": "SSRTRFTDYQLRVLQDFFDANAYPKDDEFEQLSNLGNLPTRVIVVWFQNARQKARK", "note": "[L36G]", "abundance fitness": "-0.929 ± 0.12"}
{"variant": "SSNTRFTDYQLRVLQDFFDANAYPKDDEFEQLSNLLNLPTRVIVVWFQNARQKARK", "note": "[R3N]", "abundance fitness": "0.43 ± 0.17"}
{"variant": "SSYTRFTDYQLRVLQDFFDANAYPKDDEFEQLSNLLNLPTRVIVVWFQNARQKARK", "note": "[R3Y]", "abundance fitness": "0.301 ± 0.19"}
{"variant": "SSRTRFTDYQLRVLQDFFMANAYPKDDEFEQLSNLLNLPTRVIVVWFQNARQKARK", "note": "[D19M]", "abundance fitness": "0.169 ± 0.47"}
{"variant": "SSRTRFTDYQLRVLQDFFDANGYPKDDEFEQLSNLLNLPTRVIVVWFQNARQKARK", "note": "[A22G]", "abundance fitness": "0.015 ± 0.079"}
{"variant": "SSRTRFTPYQLRVLQDFFDANAYPKDDEFEQLSNLLNLPTRVIVVWFQNARQKARK", "note": "[D8P]", "abundance fitness": "-0.235 ± 0.13"}
{"variant": "SSRTRFTDYQLRVLQDFFDANAYPKDDEFEQLSNLLNLPTRVIGVWFQNARQKARK", "note": "[V44G]", "abundance fitness": "0.034 ± 0.083"}
{"variant": "SSRTRETDYQLRVLQDFFDANAYPKDDEFEQLSNLLNLPTRVIVVWFQNARQKARK", "note": "[F6E]", "abundance fitness": "-0.657 ± 0.21"}
{"variant": "SSRTRFTDYQLRVLQDFFDANAYPKDDEFEQLSNLLNLPTRVIVVWFQEARQKARK", "note": "[N49E]", "abundance fitness": "0.141 ± 0.13"}
{"variant": "SSRTRFTDYQLRVLQDFFDANAYPKRDEFEQLSNLLNLPTRVIVVWFQNARQKARK", "note": "[D26R]", "abundance fitness": "-0.16 ± 0.083"}
{"variant": "SSRTRFTDYQLRVLLDFFDANAYPKDDEFEQLSNLLNLPTRVIVVWFQNARQKARK", "note": "[Q15L]", "abundance fitness": "-0.079 ± 0.095"}
{"variant": "SSRTRFTDYQLRVLQDFFDANAYPKDDEFEQLSNLLNLPTRVIVVWFQNACQKARK", "note": "[R51C]", "abundance fitness": "-0.168 ± 0.48"}
{"variant": "SSRTRFTDYQLRVLQDFFDANAYPHDDEFEQLSNLLNLPTRVIVVWFQNARQKARK", "note": "[K25H]", "abundance fitness": "-0.267 ± 0.16"}
{"variant": "SSRTCFTDYQLRVLQDFFDANAYPKDDEFEQLSNLLNLPTRVIVVWFQNARQKARK", "note": "[R5C]", "abundance fitness": "0.323 ± 0.081"}
{"variant": "SSRTHFTDYQLRVLQDFFDANAYPKDDEFEQLSNLLNLPTRVIVVWFQNARQKARK", "note": "[R5H]", "abundance fitness": "0.218 ± 0.12"}
{"variant": "SSRTRFTDYQLRVLQDFFDANAYPKDDEFELLSNLLNLPTRVIVVWFQNARQKARK", "note": "[Q31L]", "abundance fitness": "-0.257 ± 0.11"}
{"variant": "SSRTRFTHYQLRVLQDFFDANAYPKDDEFEQLSNLLNLPTRVIVVWFQNARQKARK", "note": "[D8H]", "abundance fitness": "-0.269 ± 0.33"}
{"variant": "SSRTRFTDYQLRVLQDFFDANAYPKDDEFEQLSNLTNLPTRVIVVWFQNARQKARK", "note": "[L36T]", "abundance fitness": "0.013 ± 0.13"}
{"variant": "SSRTRFTDYQLRVLQDFFDSNAYPKDDEFEQLSNLLNLPTRVIVVWFQNARQKARK", "note": "[A20S]", "abundance fitness": "-0.065 ± 0.12"}
{"variant": "SSRTRFTDYQLRVLQDFFDANAYPKDDEFEQTSNLLNLPTRVIVVWFQNARQKARK", "note": "[L32T]", "abundance fitness": "-0.497 ± 0.13"}
{"variant": "SSTTRFTDYQLRVLQDFFDANAYPKDDEFEQLSNLLNLPTRVIVVWFQNARQKARK", "note": "[R3T]", "abundance fitness": "0.4 ± 0.13"}
{"variant": "SSRTRFTDYQLRVLQDFFDANAYPKDDEFEQLSNLLNLPTGVIVVWFQNARQKARK", "note": "[R41G]", "abundance fitness": "0.057 ± 0.079"}
{"variant": "SSRTRFTDYQLRVLQDFFDANAYPKDDEFEQLSNLLNLPTRHIVVWFQNARQKARK", "note": "[V42H]", "abundance fitness": "0.022 ± 0.19"}
{"variant": "SSRTRFTDYQLRVLQVFFDANAYPKDDEFEQLSNLLNLPTRVIVVWFQNARQKARK", "note": "[D16V]", "abundance fitness": "-0.344 ± 0.11"}
{"variant": "SSRTRFCDYQLRVLQDFFDANAYPKDDEFEQLSNLLNLPTRVIVVWFQNARQKARK", "note": "[T7C]", "abundance fitness": "-0.563 ± 0.14"}
{"variant": "SSRTRFTDYQLRVLQDFFDANAYPRDDEFEQLSNLLNLPTRVIVVWFQNARQKARK", "note": "[K25R]", "abundance fitness": "0.013 ± 0.086"}
{"variant": "SSRTRFTDYQLRVLQDFFDANAYPKDDEFEQLSNLLNLPTWVIVVWFQNARQKARK", "note": "[R41W]", "abundance fitness": "-0.167 ± 0.14"}
{"variant": "SSRTRFTDYQLRVLQDFFDANAYPKDDEFEQLSNLLNLPTRVIVVWFGNARQKARK", "note": "[Q48G]", "abundance fitness": "-0.029 ± 0.085"}
{"variant": "SSRTRFTDYQLRVLQDFFDANAYPKDDEFEQLSNLLNLPTRVWVVWFQNARQKARK", "note": "[I43W]", "abundance fitness": "-0.879 ± 0.17"}
{"variant": "SSRTRFTDYQLRVLQDFFDANAYPKDDEFEQLSNLLNLPTRVIVVWFQNARRKARK", "note": "[Q52R]", "abundance fitness": "-0.135 ± 0.071"}
